Laboratory results published in patent publication EP0912608B1.

Molecular target: Fibronectin from human plasma (human) (UniProt P02751)
Experiment: cell-based or functional assay

Chain of UniProt P02751 (P02751 other isoform, or with tags, fused parts or gaps limits assumed): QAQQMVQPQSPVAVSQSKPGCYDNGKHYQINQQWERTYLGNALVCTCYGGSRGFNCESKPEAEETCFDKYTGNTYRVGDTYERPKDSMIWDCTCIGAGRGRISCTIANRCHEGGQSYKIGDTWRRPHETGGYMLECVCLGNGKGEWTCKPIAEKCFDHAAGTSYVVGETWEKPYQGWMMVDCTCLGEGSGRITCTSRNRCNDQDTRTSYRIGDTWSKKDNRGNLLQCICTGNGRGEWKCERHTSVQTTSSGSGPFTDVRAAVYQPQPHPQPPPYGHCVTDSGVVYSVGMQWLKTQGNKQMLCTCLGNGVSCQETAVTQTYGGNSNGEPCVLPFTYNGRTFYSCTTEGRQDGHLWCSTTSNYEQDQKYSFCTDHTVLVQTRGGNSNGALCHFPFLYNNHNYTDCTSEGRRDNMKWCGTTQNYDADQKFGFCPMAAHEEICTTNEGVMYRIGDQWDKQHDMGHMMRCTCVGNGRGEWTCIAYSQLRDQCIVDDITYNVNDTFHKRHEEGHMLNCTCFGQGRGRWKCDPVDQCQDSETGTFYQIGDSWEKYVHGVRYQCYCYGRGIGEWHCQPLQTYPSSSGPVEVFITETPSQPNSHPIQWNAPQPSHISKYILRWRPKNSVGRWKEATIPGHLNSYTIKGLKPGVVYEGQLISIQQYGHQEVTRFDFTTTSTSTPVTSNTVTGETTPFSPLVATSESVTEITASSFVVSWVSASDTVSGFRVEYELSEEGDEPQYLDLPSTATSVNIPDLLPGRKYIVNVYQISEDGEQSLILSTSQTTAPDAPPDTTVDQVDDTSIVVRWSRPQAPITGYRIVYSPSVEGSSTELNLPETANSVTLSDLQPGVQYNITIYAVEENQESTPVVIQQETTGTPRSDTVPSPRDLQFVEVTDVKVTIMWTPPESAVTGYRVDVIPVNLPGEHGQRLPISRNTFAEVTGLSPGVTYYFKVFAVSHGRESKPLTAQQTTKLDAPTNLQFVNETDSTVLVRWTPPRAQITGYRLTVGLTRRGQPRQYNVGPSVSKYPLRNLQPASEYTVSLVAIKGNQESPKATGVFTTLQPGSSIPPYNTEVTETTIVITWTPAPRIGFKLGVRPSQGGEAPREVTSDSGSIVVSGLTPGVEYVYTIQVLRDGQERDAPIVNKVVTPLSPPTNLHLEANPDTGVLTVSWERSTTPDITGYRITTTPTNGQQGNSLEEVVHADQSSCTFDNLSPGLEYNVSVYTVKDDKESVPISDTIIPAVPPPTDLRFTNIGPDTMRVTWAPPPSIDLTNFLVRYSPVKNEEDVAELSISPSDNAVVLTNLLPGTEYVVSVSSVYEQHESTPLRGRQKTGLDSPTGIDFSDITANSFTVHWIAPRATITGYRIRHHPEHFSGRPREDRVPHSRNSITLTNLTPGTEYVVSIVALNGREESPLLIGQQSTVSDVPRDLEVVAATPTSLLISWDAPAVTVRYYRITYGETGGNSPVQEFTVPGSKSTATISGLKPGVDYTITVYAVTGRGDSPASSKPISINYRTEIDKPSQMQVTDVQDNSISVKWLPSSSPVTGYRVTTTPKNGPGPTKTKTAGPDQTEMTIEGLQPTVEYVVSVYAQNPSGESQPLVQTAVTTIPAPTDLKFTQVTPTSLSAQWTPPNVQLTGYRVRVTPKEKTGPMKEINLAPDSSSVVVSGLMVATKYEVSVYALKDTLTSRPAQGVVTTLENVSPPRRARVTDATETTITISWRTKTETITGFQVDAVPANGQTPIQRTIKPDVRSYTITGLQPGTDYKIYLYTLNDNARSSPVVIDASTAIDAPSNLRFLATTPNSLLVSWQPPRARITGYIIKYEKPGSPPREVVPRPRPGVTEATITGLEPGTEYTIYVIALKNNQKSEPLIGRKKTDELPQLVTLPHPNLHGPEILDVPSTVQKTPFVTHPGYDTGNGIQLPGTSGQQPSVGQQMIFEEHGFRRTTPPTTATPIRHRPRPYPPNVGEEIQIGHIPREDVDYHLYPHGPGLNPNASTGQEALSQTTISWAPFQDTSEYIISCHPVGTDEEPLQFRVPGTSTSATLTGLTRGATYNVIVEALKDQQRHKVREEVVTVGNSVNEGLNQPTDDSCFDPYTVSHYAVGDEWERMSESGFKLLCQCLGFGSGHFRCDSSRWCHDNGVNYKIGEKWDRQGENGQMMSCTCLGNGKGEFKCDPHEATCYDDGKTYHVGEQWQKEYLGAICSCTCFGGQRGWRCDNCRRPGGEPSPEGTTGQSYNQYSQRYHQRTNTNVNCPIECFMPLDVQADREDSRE

yeast enolase (Sigma) (from UniProt P00924 2-437) (enzyme)
inhibition of pneumococcal adherence to fibronectin: 98%
